# Measurements: PMC8902225
# Legend:
# [1] = target: equine follicle-stimulating hormone receptor R633H (equine) (UniProt P47799)
# [2] = target: wild-type equine follicle-stimulating hormone receptor (equine) (UniProt P47799)
# [3] = target: equine follicle-stimulating hormone receptor N191I (equine) (UniProt P47799)
# [4] = target: wild-type equine follicle-stimulating hormone receptor (equine) (UniProt P47799); remark: listed apart in the source
# [5] = target: equine follicle-stimulating hormone receptor D566G (equine) (UniProt P47799)
# Sequence of equine follicle-stimulating hormone receptor D566G (equine) (P47799 18-694 D566G): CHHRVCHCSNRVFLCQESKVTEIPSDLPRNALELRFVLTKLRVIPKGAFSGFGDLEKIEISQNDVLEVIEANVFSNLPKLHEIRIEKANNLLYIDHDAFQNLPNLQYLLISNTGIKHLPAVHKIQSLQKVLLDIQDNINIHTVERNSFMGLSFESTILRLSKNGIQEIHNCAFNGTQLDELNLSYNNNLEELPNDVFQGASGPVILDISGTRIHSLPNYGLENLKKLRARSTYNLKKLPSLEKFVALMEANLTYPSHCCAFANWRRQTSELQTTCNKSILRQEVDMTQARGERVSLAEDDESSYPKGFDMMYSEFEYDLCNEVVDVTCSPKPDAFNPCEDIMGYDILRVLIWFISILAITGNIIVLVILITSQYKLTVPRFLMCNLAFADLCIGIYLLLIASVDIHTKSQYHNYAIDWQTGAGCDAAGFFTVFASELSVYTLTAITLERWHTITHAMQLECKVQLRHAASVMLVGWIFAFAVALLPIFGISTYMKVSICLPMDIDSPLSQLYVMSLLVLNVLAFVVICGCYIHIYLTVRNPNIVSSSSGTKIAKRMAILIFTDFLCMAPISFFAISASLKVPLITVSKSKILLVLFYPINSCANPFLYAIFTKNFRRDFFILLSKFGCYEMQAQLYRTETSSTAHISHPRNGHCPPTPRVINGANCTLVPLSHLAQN
# [6] = target: equine follicle-stimulating hormone receptor A306T (equine) (UniProt P47799)
# Sequence of equine follicle-stimulating hormone receptor A306T (equine) (P47799 18-694 A306T): as the sequence (P47799 18-694 D566G) above, with A289T, G549D counted along it
# Sequence of Human FSH (follicle-stimulating hormone) (P01215 25-116): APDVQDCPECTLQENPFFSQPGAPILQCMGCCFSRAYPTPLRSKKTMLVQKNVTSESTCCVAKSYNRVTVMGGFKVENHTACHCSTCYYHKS
# Sequence of Human FSH (follicle-stimulating hormone) (P01225 19-129): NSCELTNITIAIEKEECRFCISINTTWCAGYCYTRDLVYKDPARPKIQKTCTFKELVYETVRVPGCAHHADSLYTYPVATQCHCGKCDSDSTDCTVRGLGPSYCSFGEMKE
# Sequence of wild-type equine follicle-stimulating hormone receptor (equine) (P47799 18-694): as the sequence (P47799 18-694 D566G) above, with G549D counted along it
# Sequence of equine follicle-stimulating hormone receptor N191I (equine) (P47799 18-694 N191I): as the sequence (P47799 18-694 D566G) above, with N174I, G549D counted along it
# Sequence of equine follicle-stimulating hormone receptor R633H (equine) (P47799 18-694 R633H): as the sequence (P47799 18-694 D566G) above, with G549D, R616H counted along it
substance,measurement,setting,value
Human FSH (follicle-stimulating hormone) (from UniProt P01215 25-116; P01225 19-129) (ligand),EC50 of FSH-stimulated cAMP accumulation (HTRF) in transfected PathHunter EA-parental CHO-K1 cells,[1],1.16 µg/mL
same,EC50 of FSH-stimulated cAMP accumulation (HTRF) in transfected PathHunter EA-parental CHO-K1 cells (series with the inactivating mutants),[2],0.718 µg/mL
same,EC50 of FSH-stimulated cAMP accumulation (HTRF) in transfected PathHunter EA-parental CHO-K1 cells,[3],3.91 µg/mL
same,EC50 of FSH-stimulated cAMP accumulation (HTRF) in transfected PathHunter EA-parental CHO-K1 cells,[4],0.765 µg/mL
same,EC50 of FSH-stimulated cAMP accumulation (HTRF) in transfected PathHunter EA-parental CHO-K1 cells,[5],0.648 µg/mL
same,EC50 of FSH-stimulated cAMP accumulation (HTRF) in transfected PathHunter EA-parental CHO-K1 cells,[6],0.751 µg/mL
